Here are results for four molecules from patent US20200283521A1 (GRANULAR THERAPEUTICS, published 2020).

In test [1] the target is T1, cynomolgus monkey C-KIT-Fc (cynomolgus monkey).
T1 construct: also called cyno C-KIT-Fc
Kind of test: direct ELISA at 1 µg/ml. For orientation: An ELISA detects its analyte on a solid surface through an enzyme-linked reagent.

Test [2] addresses T2, human C-KIT-Fc (human, UniProt P10721 26-524).
T2 construct: also called biotinylated human C-KIT-Fc; not shown: Fc part not described
Nature of the test: direct ELISA at 1 µg/ml.

Test [3] concerns the target T1, cynomolgus monkey C-KIT-Fc. Nature of the test: HTRF competition vs Tb-h37M IgG1. (In general: In TR-FRET formats the signal depends on donor and acceptor labels being close together.)
For test [4], the target named is T2, human C-KIT-Fc. Kind of test: HTRF competition vs Tb-h37M IgG1.
In test [5] the target is T3, human C-KIT, full length, on cells (human, UniProt P10721 26-976).
T3 construct: full-length cDNA stably transfected in CHO-K1; also used here for endogenous C-KIT of TF-1 cells; also called human C-KIT+ CHO-K1 cells; C-KIT on TF-1 cells
Nature of the test: flow cytometry, C-KIT-transfected CHO-K1 cells, IgG1 format. A general note: A flow cytometer gives signals particle by particle.

Test [6] has as its target T2, human C-KIT-Fc. Nature of the test: direct titration ELISA on coated C-KIT-Fc, IgG1 format.
The target in test [7] is T2, human C-KIT-Fc. The description is as above. The source holds these as a separate data set.
Test [8] concerns the target T2, human C-KIT-Fc. Nature of the test: HTRF competition vs Tb-h37M IgG1. This is another data set of the same source.
Test [9] has as its target T4, cynomolgus monkey C-KIT, full length, on CHO-K1 cells (cynomolgus monkey).
T4 construct: whole, on cells; also called cyno C-KIT+ CHO-K1 cells
Nature of the test: flow cytometry, C-KIT-transfected CHO-K1 cells, IgG1 format.

Test [10] concerns the target T5, CRIM1 (human, UniProt Q9NZV1 35-1036).
T5 construct: whole, on cells
T5 sequence (looked up): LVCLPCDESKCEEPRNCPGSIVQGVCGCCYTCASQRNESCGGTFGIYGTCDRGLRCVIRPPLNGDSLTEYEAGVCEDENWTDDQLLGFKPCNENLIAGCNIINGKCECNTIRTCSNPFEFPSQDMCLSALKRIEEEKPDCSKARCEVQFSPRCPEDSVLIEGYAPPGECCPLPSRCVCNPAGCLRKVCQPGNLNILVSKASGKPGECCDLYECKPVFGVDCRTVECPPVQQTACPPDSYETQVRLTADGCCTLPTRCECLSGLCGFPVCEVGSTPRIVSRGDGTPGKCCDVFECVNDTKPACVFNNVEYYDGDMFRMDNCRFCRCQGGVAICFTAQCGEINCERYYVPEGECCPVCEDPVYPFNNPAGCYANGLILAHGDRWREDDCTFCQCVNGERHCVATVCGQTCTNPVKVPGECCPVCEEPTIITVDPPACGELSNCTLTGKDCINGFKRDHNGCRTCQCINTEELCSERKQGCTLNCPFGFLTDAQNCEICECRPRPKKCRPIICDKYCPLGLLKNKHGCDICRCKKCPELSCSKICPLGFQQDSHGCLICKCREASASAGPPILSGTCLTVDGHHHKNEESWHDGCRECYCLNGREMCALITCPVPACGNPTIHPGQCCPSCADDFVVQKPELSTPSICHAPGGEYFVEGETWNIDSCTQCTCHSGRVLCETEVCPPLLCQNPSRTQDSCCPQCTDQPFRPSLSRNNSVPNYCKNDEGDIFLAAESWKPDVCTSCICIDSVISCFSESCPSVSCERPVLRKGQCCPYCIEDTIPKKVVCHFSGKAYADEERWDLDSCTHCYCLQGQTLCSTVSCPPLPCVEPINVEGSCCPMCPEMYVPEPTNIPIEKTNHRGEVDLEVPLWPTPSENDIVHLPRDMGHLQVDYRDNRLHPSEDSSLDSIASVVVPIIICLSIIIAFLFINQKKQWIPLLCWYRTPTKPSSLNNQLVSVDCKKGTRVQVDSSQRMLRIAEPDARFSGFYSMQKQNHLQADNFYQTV
Nature of the test: cell array, HEK293 re-array slides.

The target of test [11] is T6, MMP7 (human, UniProt P09237 95-267).
T6 construct: whole, on cells
T6 sequence (looked up): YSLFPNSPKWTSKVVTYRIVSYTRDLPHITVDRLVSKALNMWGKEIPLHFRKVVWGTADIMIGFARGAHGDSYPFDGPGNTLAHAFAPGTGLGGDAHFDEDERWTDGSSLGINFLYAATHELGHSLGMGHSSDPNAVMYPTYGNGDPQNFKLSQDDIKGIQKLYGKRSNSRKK
Kind of test: cell array, HEK293 re-array slides.

Test [12] has as its target T7, F13A1 (human, UniProt P00488 39-732).
T7 construct: whole, on cells
T7 sequence (looked up): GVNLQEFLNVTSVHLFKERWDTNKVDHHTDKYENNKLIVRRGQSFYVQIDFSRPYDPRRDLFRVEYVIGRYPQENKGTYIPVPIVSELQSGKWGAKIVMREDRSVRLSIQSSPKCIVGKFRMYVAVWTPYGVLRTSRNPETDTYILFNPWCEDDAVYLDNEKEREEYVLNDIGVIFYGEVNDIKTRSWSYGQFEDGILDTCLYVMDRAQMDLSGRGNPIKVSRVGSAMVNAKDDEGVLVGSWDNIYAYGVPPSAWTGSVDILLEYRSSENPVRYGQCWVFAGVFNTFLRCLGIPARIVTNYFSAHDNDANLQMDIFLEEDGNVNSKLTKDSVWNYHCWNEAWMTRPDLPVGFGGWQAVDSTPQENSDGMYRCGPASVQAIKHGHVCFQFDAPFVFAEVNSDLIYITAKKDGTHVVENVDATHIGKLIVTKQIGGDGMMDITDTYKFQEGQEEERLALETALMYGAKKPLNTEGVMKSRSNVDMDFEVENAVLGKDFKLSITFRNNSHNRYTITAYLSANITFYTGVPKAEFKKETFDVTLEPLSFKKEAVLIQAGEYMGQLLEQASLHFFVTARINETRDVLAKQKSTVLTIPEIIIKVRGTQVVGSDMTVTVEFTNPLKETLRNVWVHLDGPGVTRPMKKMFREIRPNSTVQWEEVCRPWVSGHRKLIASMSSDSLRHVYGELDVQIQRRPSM
Kind of test: cell array, HEK293 re-array slides.

Like-named read-outs stand apart in the source and are kept apart here. A value given as a limit tells only on which side of the number the result lay.

B1: MH5, human IgG1 (antibody, V domains shown)
VH: QVQLVQSGAEVKKPGASVKVSCKASGYTFTDYYMNWVRQAPGQGLEWMGRIYPGSGNTYYAQKFQGRVTMTRDTSTSTVYMELSSLRSEDTAVYYCARGVYYYDYWGQGTLVTVSS
VL: DIQMTQSPSSLSASVGDRVTITCRASQGIRTNLAWFQQKPGKAPKSLIYSASSLQSGVPSRFSGSGSGTDFTLTISSLQPEDFATYYCQQYANYPRTFGGGTKVEIK
notes: IgG1; also called C-KIT-MH5; C-KIT-MHS
B1: the OD450 nm is over 2 OD450 nm in test [1] and over 1.8 OD450 nm in test [2]. Also, the 50% inhibitory concentration (IC50) was found to be 0.058 µg/mL in test [3], 0.067 µg/mL in test [4] and 0.063 µg/mL in test [8]. Moreover, the “EC50 (read off the curve)” value in test [5] was about 0.3 µg/mL; in test [6], about 0.1 µg/mL; in test [7], about 0.1 µg/mL; in test [9], about 0.5 µg/mL.

B2: MH1, human IgG1 (antibody, V domains shown)
VH: QVQLVQSGAEVKKPGASVKVSCKASGYTFTDYYMNWVRQAPGQGLEWMGRIYPGSGNTYYAQKFQGRVTMTRDTSTSTVYMELSSLRSEDTAVYYCARGVYYYDYWGQGTLVTVSS
VL: DIQMTQSPSSLSASVGDRVTITCRASQGIRTNLAWFQQKPGKAPKSLIYAASSLQSGVPSRFSGSGSGTDFTLTISSLQPEDFATYYCQQYNSYPRTFGGGTKVEIK
notes: IgG1; also called IgG1-MH1
In the case of B2, the OD450 nm in test [1] is over 2 OD450 nm; in test [2] it was over 1.8 OD450 nm. In addition, the “EC50 (read off the curve)” value in test [6] is about 0.1 µg/mL. The binding result was “no binding (tested: 0.5 and 2 µg/ml)” in test [10]; “no binding (tested: 0.5 and 2 µg/ml)” in test [11]; “no binding (tested: 0.5 and 2 µg/ml)” in test [12].

B3: MH5.22 (antibody, IgG1, V domains shown)
VH: QVQLVQSGAEVKKPGASVKVSCKASGYTFTDFYMNWVRQAPGQGLEWMGRIYPASGNTYYAQKFQGRVTMTRDTSTSTVYMELSSLRSEDTAVYYCARGVWYYDYWGQGTLVTVSS
VL: DIQMTQSPSSLSASVGDRVTITCRASQGIRTNLAWFQQKPGKAPKSLIYAASSLQSGVPSRFSGSGSGTDFTLTISSLQPEDFATYYCQQYANYPRTFGGGTKVEIK
notes: IgG1; also called C-KIT-MH5.22
Regarding B3, the OD450 nm was over 2 OD450 nm in test [1] and over 1.8 OD450 nm in [2]. For the same molecule, the values for the IC50 in test [3] and in test [4] were 0.164 µg/mL and 0.134 µg/mL, respectively. In addition, the “EC50 (read off the curve)” value in test [5] and in test [9] was about 0.4 µg/mL in each case.

B4: humanized h37M, human IgG1 (antibody, V domains shown)
VH: QVQLVQSGAEVKKPGASVKLSCKASGYTFTDYYINWVRQAPGKGLEWIARIYPGSGNTYYNEKFKGRATLTADKSTSTAYMQLSSLRSEDTAVYFCARGVYYFDYWGQGTTVTVSS
VL: DIVMTQSPSSLSASVGDRVTITCKASQNVRTNVAWYQQKPGKAPKALIYSASYRYSGVPDRFTGSGSGTDFTLTISSLQPEDFADYFCQQYNSYPRTFGGGTKVEIK
notes: human IgG1; terbium-labelled as the tracer of the HTRF assays; also called C-KIT-h37M; h37M-IgG1
The molecule B4 had an OD450 nm in [2] of over 1.8 OD450 nm. Also, the figures for the IC50 in test [4] and in [8] were 0.016 µg/mL and 0.025 µg/mL, respectively. For the same molecule, the “EC50 (read off the curve)” value in test [5] is about 0.2 µg/mL; in test [6], about 0.2 µg/mL; in [7] it was about 0.1 µg/mL. Besides, the binding result is “no binding (tested: 0.5 and 2 µg/ml)” in [10]; “no binding (tested: 0.5 and 2 µg/ml)” in test [11]; “no binding (tested: 0.5 and 2 µg/ml)” in test [12].

Broadly, the IC50 is the midpoint of a concentration-inhibition curve. For orientation: EC50 (read off the curve) means the concentration at which the effect is half-maximal.
